# B1: CPEB3 Ribozyme (parent)
# chain: UAACAGGGGGCCACAGCAGAAGCGUUCACGUCGCAGCCCCUGUCAGAUUCUGGUGAAUCUGCGAAUUCUGCUGUAUAUCUC
# Variants of: B1
# Assay: self-cleavage, relative activity (ratio to wild type); higher = more cleavage; in vitro, sequencing
# Outline: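 Libraries of CPEB3 self-cleaving ribozyme mutants came from rounds of error-prone PCR and carried barcodes, which DNA sequencing matched to variants. In vitro transcription used T7 RNA polymerase at 37°C for 5 hours, with a further 15 min in DNase I before EDTA stopped the reaction; the ribozymes cleaved during both steps. The RNA was reverse transcribed with template switching and sequenced on Illumina. Relative activity is the cleaved/total read fraction of a variant divided by that of the unmutated ribozyme, averaged over three batches with at least 5 reads.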
row,Variant,self-cleavage
1,UAACAGGGGGCCACAGCAGAAGCGCUCACGUCGCAGCCCCUGUCAGAUUCUGGUGAAUCUGCGAAUUCUGCUGUAUAUCUA [U25C C81A],0.23
2,UAACAGGGGGCCACAGCAGAAGCGCUCACGUCGCAGCCCCUGUCAGAUUCUGGUGAAUCUGCGAAUUCUGCUGUAUAUCUU [U25C C81U],0.15
3,UAACAGGGGGCCACAGCAGAAGCGCUCACGUCGCAGCCCCUGUCAGAUUCUGGUGAAUCUGCGAAUUCUGCUGUAUAUCUG [U25C C81G],0.22
4,UAACAGGGGGCCACAGCAGAAGCGCUCACGUCGCAGCCCCUGGCAGAUUCUGGUGAAUCUGCGAAUUCUGCUGUAUAUCUC [U25C U43G],0.35
5,UAACAGGGGGCCACAGCAGAAGCGCUCACGUCGCAGCCCCUGACAGAUUCUGGUGAAUCUGCGAAUUCUGCUGUAUAUCUC [U25C U43A],0.34
6,UAACAGGGGGCCACAGCAGAAGCGCUCACGUCGCAGCCCCUGCCAGAUUCUGGUGAAUCUGCGAAUUCUGCUGUAUAUCUC [U25C U43C],0.3
7,UAACAGGGGGCCACAGCAGAAGCGCUCACGUCGCAGCCCCUGUCAGAUUCUGGUGAAUCUGCGAAUUCUGCUGUAUAUAUC [U25C C79A],0.35
8,UAACAGGGGGCCACAGCAGAAGCGCUCACGUCGCAGCCCCUGUCAGAUUCUGGUGAAUCUGCGAAUUCUGCUGUAUAUUUC [U25C C79U],0.34
9,UAACAGGGGGCCACAGCAGAAGCGCUCACGUCGCAGCCCCUGUCAGAUUCUGGUGAAUCUGCGAAUUCUGCUGUAUAUGUC [U25C C79G],0.26
10,UAACAGGGGGCCACAGCAGAAGCGCUCACGUCGCAGCCCCUGUCAGAUUCUGGUGAAUUUGCGAAUUCUGCUGUAUAUCUC [U25C C59U],0.28
11,UAACAGGGGGCCACAGCAGAAGCGCUCACGUCGCAGCCCCUGUCAGAUUCUGGUGAAUAUGCGAAUUCUGCUGUAUAUCUC [U25C C59A],0.16
12,UAACAGGGGGCCACAGCAGAAGCGCUCACAUCGCAGCCCCUGUCAGAUUCUGGUGAAUCUGCGAAUUCUGCUGUAUAUCUC [U25C G30A],0.33
13,UAACAGGGGGCCACAGCAGAAGCGCUCACUUCGCAGCCCCUGUCAGAUUCUGGUGAAUCUGCGAAUUCUGCUGUAUAUCUC [U25C G30U],0.16
14,UAACAGGGGGCCACAGCAGAAGCGCUCACCUCGCAGCCCCUGUCAGAUUCUGGUGAAUCUGCGAAUUCUGCUGUAUAUCUC [U25C G30C],0.26
15,UAACAGGGGGCCACAGCAGAAGCGCUCACGACGCAGCCCCUGUCAGAUUCUGGUGAAUCUGCGAAUUCUGCUGUAUAUCUC [U25C U31A],0.25
16,UAACAGGGGGCCACAGCAGAAGCGCUCACGGCGCAGCCCCUGUCAGAUUCUGGUGAAUCUGCGAAUUCUGCUGUAUAUCUC [U25C U31G],0.23
17,UAACAGGGGGCCACAGCAGAAGCGCUCACGCCGCAGCCCCUGUCAGAUUCUGGUGAAUCUGCGAAUUCUGCUGUAUAUCUC [U25C U31C],0.23
18,UAACAGGGGGCCACAGCAGAAGCGCUCACGUCGCAGCCCCUUUCAGAUUCUGGUGAAUCUGCGAAUUCUGCUGUAUAUCUC [U25C G42U],0.5
19,UAACAGGGGGCCACAGCAGAAGCGCUCACGUCGCAGCCCCUCUCAGAUUCUGGUGAAUCUGCGAAUUCUGCUGUAUAUCUC [U25C G42C],0.33
20,UAACAGGGGGCCACAGCAGAAGCGCUCACGUCGCAGCCCCUGUCAGAUUCUGGUUAAUCUGCGAAUUCUGCUGUAUAUCUC [U25C G55U],0.21
21,UAACAGGGGGCCACAGCAGAAGCGCUCACGUCGCAGCCCCUGUCAGAUUCUGGUCAAUCUGCGAAUUCUGCUGUAUAUCUC [U25C G55C],0.33
22,UAACAGGGGGCCACAGCAGAAGCGCUCACGUCGCAGCCCCUGUCAGAUUCUGGUAAAUCUGCGAAUUCUGCUGUAUAUCUC [U25C G55A],0.28
23,UAACAGGGGGCCACAGCAGAAGCGCUCACGUCGCAGCCCCUGUCAGAUUCUGGUGAAUCUGUGAAUUCUGCUGUAUAUCUC [U25C C62U],0.11

row,Variant,self-cleavage
1,UAACAGGGGGCCACAGCAGAAGCGCUCACGUCGCAGCCCCUGUCAGAUUCUGGUGAAUCUGGGAAUUCUGCUGUAUAUCUC [U25C C62G],0.18
2,UAACAGGGGGCCACAGCAGAAGCGCUCACGUCGCAACCCCUGUCAGAUUCUGGUGAAUCUGCGAAUUCUGCUGUAUAUCUC [U25C G36A],0.17
3,UAACAGGGGGCCACAGCAGAAGCGCUCACGUCGCAUCCCCUGUCAGAUUCUGGUGAAUCUGCGAAUUCUGCUGUAUAUCUC [U25C G36U],0.16
4,UAACAGGGGGCCACAGCAGAAGCGCUCACGUCGCAGCCCCUGUCAGAUUCUGGUGAAUCUGCGAAUUCUGUUGUAUAUCUC [U25C C71U],0.1
5,UAACAGGGGGCCACAGCAGAAGCGCUCACGUCGCAGCCCCUGUCAGAUUCUGGUGAAUCUGCGAAUUCUGAUGUAUAUCUC [U25C C71A],0.13
6,UAACAGGGGGCCACAGCAGAAGCGCUCACGUCGCAGCCCCUGUCAGAUUCUGGUGAAUCUGCGAAUUCUGGUGUAUAUCUC [U25C C71G],0.1
7,UAACAGGGGGCCACAGCAGAAGCGCUCACGUCGCAGCACCUGUCAGAUUCUGGUGAAUCUGCGAAUUCUGCUGUAUAUCUC [U25C C38A],0.18
8,UAACAGGGGGCCACAGCAGAAGCGCUCACGUCGCAGCGCCUGUCAGAUUCUGGUGAAUCUGCGAAUUCUGCUGUAUAUCUC [U25C C38G],0.19
9,UAACAGGGGGCCACAGCAGAAGCGCUCACGUCGCAGCUCCUGUCAGAUUCUGGUGAAUCUGCGAAUUCUGCUGUAUAUCUC [U25C C38U],0.68
10,UAACAGGGGGCCACAGCAGAAGCGCUCACGUCGCAGCCCCUGUCAGAUUCUGAUGAAUCUGCGAAUUCUGCUGUAUAUCUC [U25C G53A],0.43
11,UAACAGGGGGCCACAGCAGAAGCGCUCACGUCGCAGCCCCUGUCAGAUUCUGCUGAAUCUGCGAAUUCUGCUGUAUAUCUC [U25C G53C],0.15
12,UAACAGGGGGCCACAGCAGAAGCGCUCACGUCGCAGCCCCUGUCAAAUUCUGGUGAAUCUGCGAAUUCUGCUGUAUAUCUC [U25C G46A],0.28
13,UAACAGGGGGCCACAGCAGAAGCGCUCACGUCGCAGCCCCUGUCACAUUCUGGUGAAUCUGCGAAUUCUGCUGUAUAUCUC [U25C G46C],0
14,UAACAGGGGGCCACAGCAGAAGCGCUCACGUCGCAGCCCCUGUCAUAUUCUGGUGAAUCUGCGAAUUCUGCUGUAUAUCUC [U25C G46U],0.2
15,UAACAGGGGGCCACAGCAGAAGCGCUCACGUCGCAGCCACUGUCAGAUUCUGGUGAAUCUGCGAAUUCUGCUGUAUAUCUC [U25C C39A],0.23
16,UAACAGGGGGCCACAGCAGAAGCGCUCACGUCGCAGCCGCUGUCAGAUUCUGGUGAAUCUGCGAAUUCUGCUGUAUAUCUC [U25C C39G],0.15
17,UAACAGGGGGCCACAGCAGAAGCGCUCACGUCGCAGCCUCUGUCAGAUUCUGGUGAAUCUGCGAAUUCUGCUGUAUAUCUC [U25C C39U],0.2
18,UAACAGGGGGCCACAGCAGAAGCGCUCACGUCGCAGCCCCUGUCAGAUUCUGGUGAAUCUGCGAAUUCUACUGUAUAUCUC [U25C G70A],0.3
19,UAACAGGGGGCCACAGCAGAAGCGCUCACGUCGCAGCCCCUGUCAGAUUCUGGUGAAUCUGCGAAUUCUCCUGUAUAUCUC [U25C G70C],0.11
20,UAACAGGGGGCCACAGCAGAAGCGCUCACGUCGCAGCCCCUGUCAGAUUAUGGUGAAUCUGCGAAUUCUGCUGUAUAUCUC [U25C C50A],0.09
21,UAACAGGGGGCCACAGCAGAAGCGCUCACGUCGCAGCCCCUGUCAGAUUGUGGUGAAUCUGCGAAUUCUGCUGUAUAUCUC [U25C C50G],0.37
22,UAACAGGGGGCCACAGCAGAAGCGCUCACGUCGCAGCCCCUGUCAGAUUUUGGUGAAUCUGCGAAUUCUGCUGUAUAUCUC [U25C C50U],0.27
23,UAACAGGGGGCCACAGCAGAAGCGCUCACGUCUCAGCCCCUGUCAGAUUCUGGUGAAUCUGCGAAUUCUGCUGUAUAUCUC [U25C G33U],0.15

row,Variant,self-cleavage
1,UAACAGGGGGCCACAGCAGAAGCGCUCACGUCACAGCCCCUGUCAGAUUCUGGUGAAUCUGCGAAUUCUGCUGUAUAUCUC [U25C G33A],0.25
2,UAACAGGGGGCCACAGCAGAAGCGCUCACGUCCCAGCCCCUGUCAGAUUCUGGUGAAUCUGCGAAUUCUGCUGUAUAUCUC [U25C G33C],0.16
3,UAACAGGGGGCCACAGCAGAAGCGCACACGUCGCAGCCCCUGUCAGAUUCUGGUGAAUCUGCGAAUUCUGCUGUAUAUCUC [U25C U26A],0.28
4,UAACAGGGGGCCACAGCAGAAGCGCGCACGUCGCAGCCCCUGUCAGAUUCUGGUGAAUCUGCGAAUUCUGCUGUAUAUCUC [U25C U26G],0.31
5,UAACAGGGGGCCACAGCAGAAGCGCCCACGUCGCAGCCCCUGUCAGAUUCUGGUGAAUCUGCGAAUUCUGCUGUAUAUCUC [U25C U26C],0.27
6,UAACAGGGGGCCACAGCAGAAGCGCUCACGUCGCAGCCCCUGUUAGAUUCUGGUGAAUCUGCGAAUUCUGCUGUAUAUCUC [U25C C44U],0.23
7,UAACAGGGGGCCACAGCAGAAGCGCUCACGUCGCAGCCCCUGUCAGAUUCUGGUGAAUCUGCGAAUUAUGCUGUAUAUCUC [U25C C68A],0.24
8,UAACAGGGGGCCACAGCAGAAGCGCUCACGUCGCAGCCCCGGUCAGAUUCUGGUGAAUCUGCGAAUUCUGCUGUAUAUCUC [U25C U41G],0.27
9,UAACAGGGGGCCACAGCAGAAGCGCUCACGUCGCAGCCCCAGUCAGAUUCUGGUGAAUCUGCGAAUUCUGCUGUAUAUCUC [U25C U41A],0.3
10,UAACAGGGGGCCACAGCAGAAGCGCUCACGUCGCAGCCCCCGUCAGAUUCUGGUGAAUCUGCGAAUUCUGCUGUAUAUCUC [U25C U41C],0.28
11,UAACAGGGGGCCACAGCAGAAGCGCUCACGUCGCAGCCCAUGUCAGAUUCUGGUGAAUCUGCGAAUUCUGCUGUAUAUCUC [U25C C40A],0.15
12,UAACAGGGGGCCACAGCAGAAGCGCUCACGUCGCAGCCCUUGUCAGAUUCUGGUGAAUCUGCGAAUUCUGCUGUAUAUCUC [U25C C40U],0.19
13,UAACAGGGGGCCACAGCAGAAGCGCUCACGUCGCAGCCCCUGUCAGAUUCUGGUGAAUCUGCGAAUUCUGCUUUAUAUCUC [U25C G73U],0.43
14,UAACAGGGGGCCACAGCAGAAGCGCUCACGUCGCAGCCCCUGUCAGAUUCUCGUGAAUCUGCGAAUUCUGCUGUAUAUCUC [U25C G52C],0.58
15,UAACAGGGGGCCACAGCAGAAGCGCUCACGUCGCAGCCCCUGUCAGAUUCUAGUGAAUCUGCGAAUUCUGCUGUAUAUCUC [U25C G52A],0.26
16,UAACAGGGGGCCACAGCAGAAGCGCUCACGUCGCAGCCCCUGUCAGAUUCUUGUGAAUCUGCGAAUUCUGCUGUAUAUCUC [U25C G52U],0.29
17,UAACAGGGGGCCACAGCAGAAGCGCUCACGUCGCAGCCCCUGUCAGAUUCUGGUGAAUCUGCAAAUUCUGCUGUAUAUCUC [U25C G63A],0.37
18,UAACAGGGGGCCACAGCAGAAGCGCUCACGUCGCAGCCCCUGUCAGAUUCUGGUGAAUCUGCUAAUUCUGCUGUAUAUCUC [U25C G63U],0.3
19,UAACAGGGGGCCACAGCAGAAGCGCUCACGUCGCAGCCCCUGUCAGAUUCUGGUGAAUCUGCCAAUUCUGCUGUAUAUCUC [U25C G63C],0.26
20,UAACAGGGGGCCACAGCAGAAGCGCUCACGUCGCAGCCCCUGUCAGAUUCUGGUGAAUCUCCGAAUUCUGCUGUAUAUCUC [U25C G61C],0.15
21,UAACAGGGGGCCACAGCAGAAGCGCUCACGUCGCAGCCCCUGUCAGAUUCUGGUGAAUCUACGAAUUCUGCUGUAUAUCUC [U25C G61A],0.15
22,UAACAGGGGGCCACAGCAGAAGCGCUCACGUCGCAGCCCCUGUCAGAUUCUGGUGAAUCUUCGAAUUCUGCUGUAUAUCUC [U25C G61U],0.17

# Source: the RNAGym collection of RNA variant scans (doi:10.1093/nar/gkz1192)
